Each block holds one molecule with its values, some of them ahead of it.
Tests used:
[1] = target: His-MBP-tagged N. fulvescens Atg17 (N. fulvescens); test: negative stain EM
negative stain EM = target: the molecule itself; test: negative stain EM

- stoichiometry N [1]: 2
Molecule: His-MBP-tagged N. fulvescens Atg17 (natural protein)

B1: His-MBP-tagged S. pombe Atg17 (natural protein, UniProt O42651 1-411, looked up)
chain: MELLQQWTQQAKAALTQARQLCGDAHKFNEDAKTDLRNSIKQHQQLKELAKLTASQCTRLDSSTALIKQLLDLVQNYPTFNQLNVLHDRLESSLKRLRDCTLDPALGSEYTNLYAFVDDTALEDLKTRLRGVTDGVWNAFEKLAGLLEEDLCANYHKRLEAVSLDFLPPAYNDTAEELADLLLQVAQHYDQCSEALNIYDTLSDAEKKDLQEVLQSDSNHVPSVLTELRSGLDQTIHYFNAVQSYKSKVDSATSILEALAEELNKNQLTNQRHEAAHELMRAQTGLEIPQLAQELVQLERHYTHFAKAYTALLQEIHRRQTYENCVRSIVDEFVGRLEKEQQAEAKCRIDFFNQYGDYLPQTLWGAVTDPPLHFEIIEHQYTELPNVKVIPDKNDKKSKQREKSSTTASKR
- stoichiometry N (negative stain EM): 2

B2: His-MBP-tagged S. cerevisiae Atg17 (natural protein, UniProt Q06410 1-417, looked up)
chain: MNEADVTKFVNNARKTLTDAQLLCSSANLRIVDIKKKLSSWQLSISKLNFLIVGLRQQGKFLYTILKEGIGTKLIQKQWNQAVLVVLVDEMKYWQYEITSKVQRLDGIVNELSISEKDDTDPSKLGDYISRDNVNLLNDKLKEVPVIERQIENIKLQYENMVRKVNKELIDTKLTDVTQKFQSKFGIDNLMETNVAEQFSRELTDLEKDLAEIMNSLTQHFDKTLLLQDKKIDNDEREELFKVVQGDDKELYNIFKTLHEVIDDVDKTILNLGQFLQAKIKEKTELHSEVSEIINDFNRNLEYLLIFKDISNLIDSFKNSCTQDIQTTKELCEFYDNFEESYGNLVLEAKRRKDVANRMKTILKDCEKQLQNLDAQDQEERQNFIAENGTYLPETIWPGKIDDFSSLYTLNYNVKNP
- stoichiometry N (negative stain EM): 2
